# Data published in article PMC9482650, “Quantitative fragmentomics allow affinity mapping of interactomes” (Nature Communications, 2022).
# Substitutions are numbered along the chain they refer to.
# B1: CLDN3, O15551 (peptide)
# chain: GTGYDRKDYV
# B2: KCNV1, Q6PIU1 (peptide)
# chain: RSSGGDDFWF
# B3: PTPN18, Q99952 (peptide)
# chain: RDPPAEWTRV
# B4: FOXI1, Q12951 (peptide)
# chain: VLYPREGTEV
# Biological target: Inadl_4, Q8NI35
# Experiment: holdup assay
# Parameters: key: below the threshold = too weak to quantify, mostly under pKd 3.1 to 4
# Settings: plain residues with an end cap or a label only (N-terminal biotin on a linker: ado-ado)
# Sequence of Inadl_4, Q8NI35 (Q8NI35 547-651): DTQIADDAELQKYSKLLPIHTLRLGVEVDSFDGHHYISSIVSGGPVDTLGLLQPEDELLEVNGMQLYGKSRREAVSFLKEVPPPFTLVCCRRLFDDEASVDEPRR
row,Binder,pKd
1,B1,below the threshold
2,B2,below the threshold
3,B3,below the threshold
4,B4,below the threshold

# Biological target: FRMPD2_2, Q68DX3
# Sequence (Q68DX3 944-1038): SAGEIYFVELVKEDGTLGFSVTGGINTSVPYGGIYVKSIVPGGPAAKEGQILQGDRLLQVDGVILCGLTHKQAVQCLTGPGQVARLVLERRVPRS
# Experiment: holdup assay
# Parameters: key: below the threshold = too weak to quantify, mostly under pKd 3.1 to 4
# Settings: plain residues with an end cap or a label only (N-terminal biotin on a linker: ado-ado)
row,Binder,pKd
1,B1,below the threshold
2,B2,below the threshold
3,B3,4
4,B4,3.54

# Biological target: T1, SNTB1, Q13884
# T1 sequence (Q13884 107-205, limits assumed, looked up): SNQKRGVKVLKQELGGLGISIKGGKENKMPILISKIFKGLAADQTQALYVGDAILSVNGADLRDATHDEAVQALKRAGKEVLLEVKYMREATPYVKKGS
# Experiment: holdup assay
# Parameters: key: below the threshold = too weak to quantify, mostly under pKd 3.1 to 4
# Settings: plain residues with an end cap or a label only (N-terminal biotin on a linker: ado-ado)
row,Binder,pKd
1,B1,below the threshold
2,B2,below the threshold
3,B3,4.37
4,B4,3.97

# Biological target: T2, MPDZ_5, O75970
# T2 sequence (O75970 695-796, limits assumed, looked up): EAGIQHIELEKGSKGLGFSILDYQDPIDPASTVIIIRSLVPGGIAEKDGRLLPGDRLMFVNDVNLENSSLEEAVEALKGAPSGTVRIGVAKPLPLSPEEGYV
# Experiment: holdup assay
# Parameters: key: below the threshold = too weak to quantify, mostly under pKd 3.1 to 4
# Settings: plain residues with an end cap or a label only (N-terminal biotin on a linker: ado-ado)
row,Binder,pKd
1,B1,below the threshold
2,B2,below the threshold
3,B3,below the threshold
4,B4,3.66

# Biological target: ARHGEF12, Q9NZN5-2
# Sequence (Q9NZN5 other isoform, or with tags, fused parts or gaps): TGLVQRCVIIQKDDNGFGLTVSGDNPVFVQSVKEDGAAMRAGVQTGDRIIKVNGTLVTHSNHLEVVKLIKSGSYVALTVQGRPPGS
# Experiment: holdup assay
# Parameters: key: below the threshold = too weak to quantify, mostly under pKd 3.1 to 4
# Settings: plain residues with an end cap or a label only (N-terminal biotin on a linker: ado-ado)
row,Binder,pKd
1,B1,below the threshold
2,B2,below the threshold
3,B3,3.88
4,B4,4.08

# Biological target: T3, SIPA1L2, Q9P2F8
# T3 sequence (Q9P2F8 945-1036, limits assumed, looked up): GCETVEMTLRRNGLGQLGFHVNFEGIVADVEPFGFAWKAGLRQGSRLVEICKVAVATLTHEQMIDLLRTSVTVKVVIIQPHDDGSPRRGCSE
# Experiment: holdup assay
# Parameters: key: below the threshold = too weak to quantify, mostly under pKd 3.1 to 4
# Settings: plain residues with an end cap or a label only (N-terminal biotin on a linker: ado-ado)
row,Binder,pKd
1,B1,below the threshold
2,B2,below the threshold
3,B3,below the threshold
4,B4,below the threshold

# Biological target: MAGI2_6, Q86UL8
# Sequence (Q86UL8 1141-1229): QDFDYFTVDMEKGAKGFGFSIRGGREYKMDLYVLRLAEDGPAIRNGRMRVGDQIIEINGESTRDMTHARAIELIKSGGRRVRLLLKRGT
# Experiment: holdup assay
# Parameters: key: below the threshold = too weak to quantify, mostly under pKd 3.1 to 4
# Settings: plain residues with an end cap or a label only (N-terminal biotin on a linker: ado-ado)
row,Binder,pKd
1,B1,3.52
2,B2,below the threshold
3,B3,4.09
4,B4,4.46

# Biological target: T4, NHERF3_4, Q5T2W1
# T4 sequence (Q5T2W1 373-468, limits assumed, looked up): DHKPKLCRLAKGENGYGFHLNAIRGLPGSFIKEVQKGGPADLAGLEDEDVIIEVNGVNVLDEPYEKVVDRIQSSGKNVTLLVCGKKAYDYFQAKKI
# Experiment: holdup assay
# Parameters: key: below the threshold = too weak to quantify, mostly under pKd 3.1 to 4
# Settings: plain residues with an end cap or a label only (N-terminal biotin on a linker: ado-ado)
row,Binder,pKd
1,B1,below the threshold
2,B2,below the threshold
3,B3,below the threshold
4,B4,below the threshold

# Biological target: GRIP2_4, Q9C0E4
# Sequence (Q9C0E4 446-548): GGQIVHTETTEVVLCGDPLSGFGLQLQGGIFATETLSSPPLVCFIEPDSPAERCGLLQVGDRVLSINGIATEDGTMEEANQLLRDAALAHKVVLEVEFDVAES
# Experiment: holdup assay
# Parameters: key: below the threshold = too weak to quantify, mostly under pKd 3.1 to 4
# Settings: plain residues with an end cap or a label only (N-terminal biotin on a linker: ado-ado)
row,Binder,pKd
1,B1,3.53
2,B2,below the threshold
3,B3,below the threshold
4,B4,below the threshold

# Biological target: T5, NHERF3_3, Q5T2W1
# T5 sequence (Q5T2W1 238-333, limits assumed, looked up): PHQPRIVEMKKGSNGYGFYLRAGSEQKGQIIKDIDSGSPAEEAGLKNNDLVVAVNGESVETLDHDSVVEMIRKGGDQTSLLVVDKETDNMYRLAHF
# Experiment: holdup assay
# Parameters: key: below the threshold = too weak to quantify, mostly under pKd 3.1 to 4
# Settings: plain residues with an end cap or a label only (N-terminal biotin on a linker: ado-ado)
row,Binder,pKd
1,B1,below the threshold
2,B2,below the threshold
3,B3,3.87
4,B4,below the threshold

# Biological target: T6, LIN7B, Q9HAP6
# T6 sequence (Q9HAP6 88-185, limits assumed, looked up): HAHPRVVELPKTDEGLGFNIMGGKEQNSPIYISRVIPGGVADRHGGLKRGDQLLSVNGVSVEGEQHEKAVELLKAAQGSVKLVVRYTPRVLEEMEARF
# Experiment: holdup assay
# Parameters: key: below the threshold = too weak to quantify, mostly under pKd 3.1 to 4
# Settings: plain residues with an end cap or a label only (N-terminal biotin on a linker: ado-ado)
row,Binder,pKd
1,B1,below the threshold
2,B2,3.7
3,B3,below the threshold
4,B4,below the threshold

# Biological target: PTPN3, P26045
# Sequence (P26045 505-587): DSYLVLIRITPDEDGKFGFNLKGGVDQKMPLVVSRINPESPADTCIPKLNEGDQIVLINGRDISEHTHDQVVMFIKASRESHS
# Experiment: holdup assay
# Parameters: key: below the threshold = too weak to quantify, mostly under pKd 3.1 to 4
# Settings: plain residues with an end cap or a label only (N-terminal biotin on a linker: ado-ado)
row,Binder,pKd
1,B1,4.04
2,B2,4.35
3,B3,below the threshold
4,B4,4.76

# Biological target: T7, PDZD7_3, Q9H5P4
# T7 sequence (Q9H5P4 857-944, limits assumed, looked up): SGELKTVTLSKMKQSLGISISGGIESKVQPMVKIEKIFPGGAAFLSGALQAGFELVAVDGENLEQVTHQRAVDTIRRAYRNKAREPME
# Experiment: holdup assay
# Parameters: key: below the threshold = too weak to quantify, mostly under pKd 3.1 to 4
# Settings: plain residues with an end cap or a label only (N-terminal biotin on a linker: ado-ado)
row,Binder,pKd
1,B1,4
2,B2,3.92
3,B3,4.83
4,B4,3.99

# Biological target: CASK, O14936
# Sequence (O14936 487-570): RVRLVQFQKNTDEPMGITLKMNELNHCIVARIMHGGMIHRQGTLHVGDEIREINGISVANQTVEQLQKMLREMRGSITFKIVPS
# Experiment: holdup assay
# Parameters: key: below the threshold = too weak to quantify, mostly under pKd 3.1 to 4
# Settings: plain residues with an end cap or a label only (N-terminal biotin on a linker: ado-ado)
row,Binder,pKd
1,B1,below the threshold
2,B2,below the threshold
3,B3,below the threshold
4,B4,below the threshold

# Biological target: T8, GRIP1_5, Q9Y3R0
# T8 sequence (Q9Y3R0 568-668, limits assumed, looked up): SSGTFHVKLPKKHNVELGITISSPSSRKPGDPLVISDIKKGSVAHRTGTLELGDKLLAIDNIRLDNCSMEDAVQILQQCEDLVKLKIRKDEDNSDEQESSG
# Experiment: holdup assay
# Parameters: key: below the threshold = too weak to quantify, mostly under pKd 3.1 to 4
# Settings: plain residues with an end cap or a label only (N-terminal biotin on a linker: ado-ado)
row,Binder,pKd
1,B1,below the threshold
2,B2,below the threshold
3,B3,below the threshold
4,B4,below the threshold

# Biological target: DLG4_1, P78352
# Sequence (P78352 62-152): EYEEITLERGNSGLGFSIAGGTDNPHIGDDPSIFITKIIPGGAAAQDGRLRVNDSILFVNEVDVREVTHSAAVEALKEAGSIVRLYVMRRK
# Experiment: holdup assay
# Parameters: key: below the threshold = too weak to quantify, mostly under pKd 3.1 to 4
# Settings: plain residues with an end cap or a label only (N-terminal biotin on a linker: ado-ado)
row,Binder,pKd
1,B1,below the threshold
2,B2,below the threshold
3,B3,4.07
4,B4,4.48

# Biological target: T9, MPP2, Q14168
# T9 sequence (Q14168 180-250, limits assumed, looked up): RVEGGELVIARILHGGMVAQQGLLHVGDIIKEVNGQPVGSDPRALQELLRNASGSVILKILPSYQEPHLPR
# Experiment: holdup assay
# Parameters: key: below the threshold = too weak to quantify, mostly under pKd 3.1 to 4
# Settings: plain residues with an end cap or a label only (N-terminal biotin on a linker: ado-ado)
row,Binder,pKd
1,B1,below the threshold
2,B2,below the threshold
3,B3,below the threshold
4,B4,below the threshold

# Biological target: T10, ARHGAP21, Q5T5U3
# T10 sequence (Q5T5U3 45-169, limits assumed, looked up): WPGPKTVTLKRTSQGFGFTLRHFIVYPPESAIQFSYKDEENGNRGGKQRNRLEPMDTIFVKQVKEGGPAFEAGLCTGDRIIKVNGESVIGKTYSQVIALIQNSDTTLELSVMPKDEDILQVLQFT
# Experiment: holdup assay
# Parameters: key: below the threshold = too weak to quantify, mostly under pKd 3.1 to 4
# Settings: plain residues with an end cap or a label only (N-terminal biotin on a linker: ado-ado)
row,Binder,pKd
1,B1,3.83
2,B2,4.8
3,B3,3.95
4,B4,4

# Biological target: MAST2, Q6P0Q8
# Sequence (Q6P0Q8 1099-1202): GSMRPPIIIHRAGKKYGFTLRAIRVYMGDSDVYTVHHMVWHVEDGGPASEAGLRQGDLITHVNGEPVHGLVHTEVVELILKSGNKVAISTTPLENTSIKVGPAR
# Experiment: holdup assay
# Parameters: key: below the threshold = too weak to quantify, mostly under pKd 3.1 to 4
# Settings: plain residues with an end cap or a label only (N-terminal biotin on a linker: ado-ado)
row,Binder,pKd
1,B1,below the threshold
2,B2,4.61
3,B3,5.62
4,B4,5.27

# Biological target: PDLIM1, O00151
# Sequence (O00151 1-87): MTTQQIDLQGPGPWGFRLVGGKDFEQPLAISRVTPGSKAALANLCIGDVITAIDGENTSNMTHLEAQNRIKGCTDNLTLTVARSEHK
# Experiment: holdup assay
# Parameters: key: below the threshold = too weak to quantify, mostly under pKd 3.1 to 4
# Settings: plain residues with an end cap or a label only (N-terminal biotin on a linker: ado-ado)
row,Binder,pKd
1,B1,below the threshold
2,B2,below the threshold
3,B3,below the threshold
4,B4,3.81

# Biological target: T11, APBA1_2, Q02410
# T11 sequence (Q02410 742-832, limits assumed, looked up): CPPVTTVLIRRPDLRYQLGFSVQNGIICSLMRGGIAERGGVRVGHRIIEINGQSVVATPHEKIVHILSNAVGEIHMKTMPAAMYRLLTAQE
# Experiment: holdup assay
# Parameters: key: below the threshold = too weak to quantify, mostly under pKd 3.1 to 4
# Settings: plain residues with an end cap or a label only (N-terminal biotin on a linker: ado-ado)
row,Binder,pKd
1,B1,4.24
2,B2,below the threshold
3,B3,4.25
4,B4,4.51

# Biological target: T12, TX1BP3, O14907
# T12 sequence (O14907 10-122, limits assumed, looked up): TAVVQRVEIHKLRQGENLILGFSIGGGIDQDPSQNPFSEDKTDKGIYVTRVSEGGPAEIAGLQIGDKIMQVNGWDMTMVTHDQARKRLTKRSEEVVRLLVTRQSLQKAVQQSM
# Experiment: holdup assay
# Parameters: key: below the threshold = too weak to quantify, mostly under pKd 3.1 to 4
# Settings: plain residues with an end cap or a label only (N-terminal biotin on a linker: ado-ado)
row,Binder,pKd
1,B1,below the threshold
2,B2,below the threshold
3,B3,4.06
4,B4,3.73

# Biological target: T13, MPP7, Q5T2T1
# T13 sequence (Q5T2T1 134-230, limits assumed, looked up): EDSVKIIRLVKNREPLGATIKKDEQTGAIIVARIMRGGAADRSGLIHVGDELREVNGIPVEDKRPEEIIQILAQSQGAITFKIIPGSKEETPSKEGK
# Experiment: holdup assay
# Parameters: key: below the threshold = too weak to quantify, mostly under pKd 3.1 to 4
# Settings: plain residues with an end cap or a label only (N-terminal biotin on a linker: ado-ado)
row,Binder,pKd
1,B1,below the threshold
2,B2,4.45
3,B3,below the threshold
4,B4,below the threshold

# Biological target: T14, APBA2_2, Q99767
# T14 sequence (Q99767 654-744, limits assumed, looked up): T11 sequence (Q02410 742-832, limits assumed, looked up) with R10K, R15K, P59A, H65Q, I66A, A70S, Y84F, A89G
# Experiment: holdup assay
# Parameters: key: below the threshold = too weak to quantify, mostly under pKd 3.1 to 4
# Settings: plain residues with an end cap or a label only (N-terminal biotin on a linker: ado-ado)
row,Binder,pKd
1,B1,below the threshold
2,B2,below the threshold
3,B3,below the threshold
4,B4,below the threshold
